Data taken from paper PMC5714123, “The SMAD3 transcription factor binds complex RNA structures with high affinity”.

What was measured:
[1] = target: T1, SMAD3 MH1 (Homo sapiens, UniProt P84022 1-132); test: EMSA; Hill 1.6; EMSA: 25 mM Tris-HCl (pH not given for binding buffer; RNA stock pH 7.5), 115 mM KCl, 1 mM MgCl2, 1 mM DTT, 20 ng/ul poly I:C, 0.1 mg/ml BSA, 10% glycerol, on ice 2 h; 0.5x TBE gel at 4 C; conditions: protein: recombinant; tags: 6xHis-SUMO cleaved; label: 5' 32P; hairpin
[2] = target: T1, SMAD3 MH1; test: EMSA; Hill 2.1; EMSA: 25 mM Tris-HCl (pH not given for binding buffer; RNA stock pH 7.5), 115 mM KCl, 1 mM MgCl2, 1 mM DTT, 20 ng/ul poly I:C, 0.1 mg/ml BSA, 10% glycerol, on ice 2 h; 0.5x TBE gel at 4 C; conditions: protein: recombinant; tags: 6xHis-SUMO cleaved; label: 5' 32P; hairpin with 6x3 internal loop
[3] = target: T1, SMAD3 MH1; test: EMSA; Hill 1.1; EMSA: 25 mM Tris-HCl (pH not given for binding buffer; RNA stock pH 7.5), 115 mM KCl, 1 mM MgCl2, 1 mM DTT, 20 ng/ul poly I:C, 0.1 mg/ml BSA, 10% glycerol, on ice 2 h; 0.5x TBE gel at 4 C; conditions: protein: recombinant; tags: 6xHis-SUMO cleaved; label: 5' 32P; structured, multi-loop
[4] = target: T1, SMAD3 MH1; test: EMSA; Hill 1.7; EMSA: 25 mM Tris-HCl (pH not given for binding buffer; RNA stock pH 7.5), 115 mM KCl, 1 mM MgCl2, 1 mM DTT, 20 ng/ul poly I:C, 0.1 mg/ml BSA, 10% glycerol, on ice 2 h; 0.5x TBE gel at 4 C; conditions: protein: recombinant, tags: 6xHis-SUMO cleaved
[5] = target: T1, SMAD3 MH1; test: EMSA; Hill 1.8; EMSA: 25 mM Tris-HCl (pH not given for binding buffer; RNA stock pH 7.5), 115 mM KCl, 1 mM MgCl2, 1 mM DTT, 20 ng/ul poly I:C, 0.1 mg/ml BSA, 10% glycerol, on ice 2 h; 0.5x TBE gel at 4 C; conditions: protein: recombinant, tags: 6xHis-SUMO cleaved
[6] = target: T1, SMAD3 MH1; test: EMSA; Hill 3.0; EMSA: 25 mM Tris-HCl (pH not given for binding buffer; RNA stock pH 7.5), 115 mM KCl, 1 mM MgCl2, 1 mM DTT, 20 ng/ul poly I:C, 0.1 mg/ml BSA, 10% glycerol, on ice 2 h; 0.5x TBE gel at 4 C; conditions: protein: recombinant; tags: 6xHis-SUMO cleaved; label: 5' 32P; hairpin
[7] = target: T1, SMAD3 MH1; test: EMSA; Hill 3.6; EMSA: 25 mM Tris-HCl (pH not given for binding buffer; RNA stock pH 7.5), 115 mM KCl, 1 mM MgCl2, 1 mM DTT, 20 ng/ul poly I:C, 0.1 mg/ml BSA, 10% glycerol, on ice 2 h; 0.5x TBE gel at 4 C; conditions: protein: recombinant; tags: 6xHis-SUMO cleaved; label: 5' 32P (EMSA); hairpin
[8] = target: T1, SMAD3 MH1; test: EMSA; Hill 1.9; EMSA: 25 mM Tris-HCl (pH not given for binding buffer; RNA stock pH 7.5), 115 mM KCl, 1 mM MgCl2, 1 mM DTT, 20 ng/ul poly I:C, 0.1 mg/ml BSA, 10% glycerol, on ice 2 h; 0.5x TBE gel at 4 C; conditions: protein: recombinant, tags: 6xHis-SUMO cleaved
[9] = target: T1, SMAD3 MH1; test: EMSA; Hill 3.2; EMSA: 25 mM Tris-HCl (pH not given for binding buffer; RNA stock pH 7.5), 115 mM KCl, 1 mM MgCl2, 1 mM DTT, 20 ng/ul poly I:C, 0.1 mg/ml BSA, 10% glycerol, on ice 2 h; 0.5x TBE gel at 4 C; conditions: protein: recombinant; tags: 6xHis-SUMO cleaved; label: 5' 32P; hairpin with single-stranded flanks
[10] = target: T1, SMAD3 MH1; test: EMSA; Hill 2.7; EMSA: 25 mM Tris-HCl (pH not given for binding buffer; RNA stock pH 7.5), 115 mM KCl, 1 mM MgCl2, 1 mM DTT, 20 ng/ul poly I:C, 0.1 mg/ml BSA, 10% glycerol, on ice 2 h; 0.5x TBE gel at 4 C; conditions: protein: recombinant; tags: 6xHis-SUMO cleaved; label: 5' 32P; hairpin
[11] = target: T1, SMAD3 MH1; test: EMSA; Hill 2.5; EMSA: 25 mM Tris-HCl (pH not given for binding buffer; RNA stock pH 7.5), 115 mM KCl, 1 mM MgCl2, 1 mM DTT, 20 ng/ul poly I:C, 0.1 mg/ml BSA, 10% glycerol, on ice 2 h; 0.5x TBE gel at 4 C; conditions: protein: recombinant; tags: 6xHis-SUMO cleaved; label: 5' 32P; hairpin with 2x3 internal loop
[12] = target: T1, SMAD3 MH1; test: EMSA; Hill 3.1; EMSA: 25 mM Tris-HCl (pH not given for binding buffer; RNA stock pH 7.5), 115 mM KCl, 1 mM MgCl2, 1 mM DTT, 20 ng/ul poly I:C, 0.1 mg/ml BSA, 10% glycerol, on ice 2 h; 0.5x TBE gel at 4 C; conditions: protein: recombinant; tags: 6xHis-SUMO cleaved; label: 5' 32P; hairpin
[13] = target: T1, SMAD3 MH1; test: EMSA; Hill 3.4; EMSA: 25 mM Tris-HCl (pH not given for binding buffer; RNA stock pH 7.5), 115 mM KCl, 1 mM MgCl2, 1 mM DTT, 20 ng/ul poly I:C, 0.1 mg/ml BSA, 10% glycerol, on ice 2 h; 0.5x TBE gel at 4 C; conditions: protein: recombinant; tags: 6xHis-SUMO cleaved; label: 5' 32P; hairpin
[14] = target: T1, SMAD3 MH1; test: EMSA; Hill 2.2; EMSA: 25 mM Tris-HCl (pH not given for binding buffer; RNA stock pH 7.5), 115 mM KCl, 1 mM MgCl2, 1 mM DTT, 20 ng/ul poly I:C, 0.1 mg/ml BSA, 10% glycerol, on ice 2 h; 0.5x TBE gel at 4 C; conditions: protein: recombinant; tags: 6xHis-SUMO cleaved; label: 5' 32P; hairpin with 1x5 internal loop
[15] = label: 5' 32P, hairpin with 6x3 internal loop

T1 sequence (P84022 1-132): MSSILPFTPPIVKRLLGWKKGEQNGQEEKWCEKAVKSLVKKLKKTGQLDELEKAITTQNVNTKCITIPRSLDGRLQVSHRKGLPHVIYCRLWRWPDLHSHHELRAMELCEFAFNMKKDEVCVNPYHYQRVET

GGGUCUCGUAUUGCAGAAAUAAAUCAAGCGAGAC (structured_RNA) [17c D4a truncation 3] gave a Kd [1] of 1500 ± 300 nM.

B1: 17d D4a isolated terminal loop (structured_RNA)
RNA: GGGUCUCGUAUUGCAGAAAUGACACAUCUUGCCCGUAACCAAUCGGGUAAGGUGUGUCAAAUCAAUGCGAGAC
For B1, the Kd [2] was 570 ± 20 nM.

B2: 11 VAI (structured_RNA)
RNA: GGGCACUCUUCCGUGGUCUGGUGGAUAAAUUCGCAAGGGUAUCAUGGCGGACGACCGGGGUUCGAACCCCGGAUCCGGCCGUCCGCCGUGAUCCAUGCGGUUACCGCCCGCGUGUCGAACCCAGGUGUGCGACGUCAGACAACGGGGGAGCGCUC
For B2, the Kd [3] was 110 ± 20 nM.

B3: 17a D4a truncation 1 (structured_RNA)
RNA: GGGUCUCGUAUUGCAGAAAUGACAACAUCUUUCGAGGUGGUCAAAUCAAGCGAGAC
B3 showed a Kd [4, 15] of 340 ± 70 nM.

Binder GAUACUUGAAACUGUAAGGUUGGCGUAUC (structured_RNA) [20 NF-kB aptamer] has a Kd ([5]; label: 5' 32P, hairpin with 4x3 internal loop) of 4400 ± 600 nM.

GGGUCUCGUAUUGCAGAAAUGACUUCGGUCAAAUCAAGAGAGAC (structured_RNA) [17b D4a truncation 2] was tested, and the Kd [5, 15] was 480 ± 80 nM.

GGACGUACUGCCAGAAGUGGGCGUUCGCGCGUACUCUGGUGGGUACGUCC (structured_RNA) [6b hsa-miR-509 central stem dSBE] showed a Kd [6] of 3000 ± 300 nM.

B4: 16 30-bp hairpin (structured_RNA)
RNA: GGAUCGAUCGAUCGAUCGGCAUCGAUCGGCUUCGGCCGAUCGAUGCCGAUCGAUCGAUCGAUCC
For B4, the Kd [7] was 4 ± 0.2 µM.

B5: 19 dsDNA with 1 SBE (dsDNA)
DNA 1: GTATGTCTCAGATGAA
DNA 2: TTCATCTGAGACATAC
Binder B5 has a Kd ([8]; label: 5' 32P on one strand, blunt) of 190 ± 20 nM.

B6: 18 ai5-gamma D3 (structured_RNA)
RNA: GGGUAUAAAAAGCUAAUGCCAUAUUGUAAUGAUAUGGAUAAGAAUUAUUAUUCUAAAGAUGAAAAUCUGCUAACUUAUACUG
B6 showed a Kd ([5]; label: 5' 32P (EMSA), four-way junction with bulged stem) of 190 ± 30 nM.

B7: 17 Group II intron D4A (structured_RNA)
RNA: GGGGUCUCGUAUUGCAGAAAUGACAACAUCUGCCGUAACCAAUCGGGUAAAAGGUGGUCAAAUCAAGCGAGAC
B7 was tested, and the Kd ([4]; label: 5' 32P (EMSA), hairpin with 1x5 and 6x3 internal loops) was 190 ± 10 nM.

B8: 10 hsa-miR-21 extended (structured_RNA)
RNA: GGGUGUUUUGCCUACCAUCGUGACAUCUCCAUGGCUGUACCACCUUGUCGGGUAGCUUAUCAGACUGAUGUUGACUGUUGAAUCUCAUGGCAACACCAGUCGAUGGGCUGUCUGACAUUUUGGUAUCUUUCAUCUGACCAUCCAUAUCCAAUGUUCUCAG
B8 was tested, and the Kd [9] was 700 ± 60 nM.

For GGACGUGAGGUAGUAUGUAAGCGUUCGCGCUUUCAACUAACUCGCGUCC (structured_RNA) [9a cel-miR-84 central stem], the Kd [10] was 2900 ± 100 nM.

B9: 3c hsa-miR-199a-1 stem loop (structured_RNA)
RNA: GGCCAACCCAGUGUUCAGACUACCUGUUCAGGAGGCUCUCAAUGUGUACAGUAGUCUGCACAUUGGUUAGGCC
B9 was tested, and the Kd ([8]; label: 5' 32P, hairpin) was 1250 ± 50 nM.

Binder GGUCUGGGCGCAGCGCAAGCUGACGGUACAGGCC (structured_RNA) [21 RRE] has a Kd [11] of 3000 ± 300 nM.

In the case of GGACGUACUGCAGACAGUGGGCGUUCGCGCGUACGUCUGUGGGUACGUCC (structured_RNA) [6a hsa-miR-509 central stem], the Kd ([5]; label: 5' 32P, hairpin) is reported as 2100 ± 300 nM.

GGACGCUUAUCAGACUGAUGUUGUUCGCAACACCAGUCGAUGGGCGUCC (structured_RNA) [1a hsa-miR-21 central stem] was tested, and the Kd [12] was 2500 ± 100 nM.

Work on GGACGCUUAUAAAACUGAUGUUGUUCGCAACACCAGUUUAUGGGCGUCC (structured_RNA) [1b hsa-miR-21 central stem dSBE] yielded a Kd [13] of 2700 ± 100 nM.

B10: 17e D4a isolated apical loop (structured_RNA)
RNA: GGGUCUCGUAUUGCAGAUGACACAUCUGCCGUAACCAAUCGGGUAAAAGGUGUGUCAUCUGCAAUGCGAGAC
B10 was tested, and the Kd [14] was 400 ± 10 nM.

B11: 9c cel-miR-84 stem loop (structured_RNA)
RNA: GGCAUCUGAGGUAGUAUGUAAUAUUGUAGACUGUCUAUAAUGUCCACAAUGUUUCAACUAACUCGGCUGCC
Work on B11 yielded a Kd [10] of 1600 ± 100 nM.
